# Reference: the supplement of paper PMC9112550, “Optimization of the antimicrobial peptide Bac7 by deep mutational scanning” (BMC Biology, 2022)
# Test system: Escherichia coli TOP10
# Test: shrunken log2 fold change of peptide-encoding DNA abundance (4.5 h post-induction vs induction); higher = less antimicrobial activity (less host growth inhibition)
# Conditions: time post-induction: 4.5 h; library: site-saturation at positions 5, 18, 19, 20
# 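Further: peptides expressed intracellularly from a pBAD plasmid library in pooled LB shake-flask culture, induced with 0.3% L-arabinose, DNA abundance read by NGS, three biological replicates, DESeq2 with apeglm shrinkage.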
row,Sequence,shrunken log2 fold change
1,RRIRMRPPRLPRPRPRPTNGPRP,-0.0328
2,RRIRMRPPRLPRPRPRPTNYPRP,-0.212
3,RRIRMRPPRLPRPRPRPTPKPRP,0.107
4,RRIRMRPPRLPRPRPRPTQFPRP,0.178
5,RRIRMRPPRLPRPRPRPTQGPRP,0.805
6,RRIRMRPPRLPRPRPRPTRQPRP,0.886
7,RRIRMRPPRLPRPRPRPTSHPRP,0.0149
8,RRIRMRPPRLPRPRPRPTTQPRP,0.081
9,RRIRMRPPRLPRPRPRPTTYPRP,0.0427
10,RRIRMRPPRLPRPRPRPVANPRP,0.331
11,RRIRMRPPRLPRPRPRPVASPRP,0.58
12,RRIRMRPPRLPRPRPRPVCHPRP,0.224
13,RRIRMRPPRLPRPRPRPVDIPRP,-0.0631
14,RRIRMRPPRLPRPRPRPVDPPRP,0.0473
15,RRIRMRPPRLPRPRPRPVDWPRP,1.21
16,RRIRMRPPRLPRPRPRPVFCPRP,0.388
17,RRIRMRPPRLPRPRPRPVINPRP,-0.305
18,RRIRMRPPRLPRPRPRPVKAPRP,-0.0481
19,RRIRMRPPRLPRPRPRPVKVPRP,0.0321
20,RRIRMRPPRLPRPRPRPVLIPRP,-0.0938
21,RRIRMRPPRLPRPRPRPVMEPRP,-0.00102
22,RRIRMRPPRLPRPRPRPVMMPRP,0.147
23,RRIRMRPPRLPRPRPRPVMNPRP,0.196
24,RRIRMRPPRLPRPRPRPVPGPRP,0.882
25,RRIRMRPPRLPRPRPRPVPQPRP,0.7

row,Sequence,shrunken log2 fold change
1,RRIRMRPPRLPRPRPRPVRCPRP,0.117
2,RRIRMRPPRLPRPRPRPVSDPRP,2.67
3,RRIRMRPPRLPRPRPRPVSHPRP,0.259
4,RRIRMRPPRLPRPRPRPVSIPRP,0.0541
5,RRIRMRPPRLPRPRPRPVTSPRP,-0.0914
6,RRIRMRPPRLPRPRPRPVVAPRP,0.533
7,RRIRMRPPRLPRPRPRPVVFPRP,2.6
8,RRIRMRPPRLPRPRPRPVVNPRP,0.0747
9,RRIRMRPPRLPRPRPRPVWYPRP,-0.0263
10,RRIRMRPPRLPRPRPRPVYMPRP,-0.214
11,RRIRMRPPRLPRPRPRPVYYPRP,-0.123
12,RRIRMRPPRLPRPRPRPWAFPRP,-0.121
13,RRIRMRPPRLPRPRPRPWCIPRP,-0.315
14,RRIRMRPPRLPRPRPRPWCKPRP,0.0317
15,RRIRMRPPRLPRPRPRPWCYPRP,-0.162
16,RRIRMRPPRLPRPRPRPWEAPRP,-0.033
17,RRIRMRPPRLPRPRPRPWECPRP,1.1
18,RRIRMRPPRLPRPRPRPWFFPRP,-0.0229
19,RRIRMRPPRLPRPRPRPWFLPRP,0.0242
20,RRIRMRPPRLPRPRPRPWFYPRP,-0.418
21,RRIRMRPPRLPRPRPRPWGIPRP,0.0388
22,RRIRMRPPRLPRPRPRPWGPPRP,0.106
23,RRIRMRPPRLPRPRPRPWIVPRP,0.0842
24,RRIRMRPPRLPRPRPRPWKMPRP,0.0322
25,RRIRMRPPRLPRPRPRPWMLPRP,0.367

row,Sequence,shrunken log2 fold change
1,RRIRMRPPRLPRPRPRPWNFPRP,-0.0756
2,RRIRMRPPRLPRPRPRPWNHPRP,-0.0446
3,RRIRMRPPRLPRPRPRPWNMPRP,-0.0747
4,RRIRMRPPRLPRPRPRPWNWPRP,0.342
5,RRIRMRPPRLPRPRPRPWQIPRP,-0.224
6,RRIRMRPPRLPRPRPRPWREPRP,0.189
7,RRIRMRPPRLPRPRPRPWSQPRP,-0.189
8,RRIRMRPPRLPRPRPRPWTIPRP,-0.0577
9,RRIRMRPPRLPRPRPRPWTYPRP,-0.0551
10,RRIRMRPPRLPRPRPRPWWMPRP,0.0885
11,RRIRMRPPRLPRPRPRPWYWPRP,-0.724
12,RRIRMRPPRLPRPRPRPYAFPRP,-0.0624
13,RRIRMRPPRLPRPRPRPYARPRP,-0.00176
14,RRIRMRPPRLPRPRPRPYDAPRP,0.11
15,RRIRMRPPRLPRPRPRPYDEPRP,0.0491
16,RRIRMRPPRLPRPRPRPYDTPRP,-0.171
17,RRIRMRPPRLPRPRPRPYEGPRP,-0.13
18,RRIRMRPPRLPRPRPRPYEMPRP,0.0693
19,RRIRMRPPRLPRPRPRPYEPPRP,-0.352
20,RRIRMRPPRLPRPRPRPYFIPRP,-0.413
21,RRIRMRPPRLPRPRPRPYFMPRP,-0.898
22,RRIRMRPPRLPRPRPRPYGGPRP,-1.22
23,RRIRMRPPRLPRPRPRPYGPPRP,0.0478
24,RRIRMRPPRLPRPRPRPYHAPRP,-0.387
25,RRIRMRPPRLPRPRPRPYHHPRP,-0.702

row,Sequence,shrunken log2 fold change
1,RRIRMRPPRLPRPRPRPYHPPRP,-0.423
2,RRIRMRPPRLPRPRPRPYHQPRP,-0.297
3,RRIRMRPPRLPRPRPRPYHVPRP,-0.065
4,RRIRMRPPRLPRPRPRPYIEPRP,-0.201
5,RRIRMRPPRLPRPRPRPYKFPRP,0.0435
6,RRIRMRPPRLPRPRPRPYKVPRP,-0.0176
7,RRIRMRPPRLPRPRPRPYLTPRP,-0.268
8,RRIRMRPPRLPRPRPRPYMTPRP,-0.178
9,RRIRMRPPRLPRPRPRPYNVPRP,-0.3
10,RRIRMRPPRLPRPRPRPYPPPRP,0.133
11,RRIRMRPPRLPRPRPRPYQDPRP,0.0259
12,RRIRMRPPRLPRPRPRPYQEPRP,-0.0194
13,RRIRMRPPRLPRPRPRPYQYPRP,-0.0219
14,RRIRMRPPRLPRPRPRPYVAPRP,-0.445
15,RRIRMRPPRLPRPRPRPYVNPRP,-0.284
16,RRIRMRPPRLPRPRPRPYVQPRP,0.056
17,RRIRMRPPRLPRPRPRPYVSPRP,0.013
18,RRIRNRPPRLPRPRPRPAAEPRP,0.232
19,RRIRNRPPRLPRPRPRPAAIPRP,1.95
20,RRIRNRPPRLPRPRPRPAAKPRP,-0.0209
21,RRIRNRPPRLPRPRPRPAFFPRP,0.0459
22,RRIRNRPPRLPRPRPRPAFHPRP,-0.436
23,RRIRNRPPRLPRPRPRPAFMPRP,0.0417
24,RRIRNRPPRLPRPRPRPAGPPRP,-0.0019
25,RRIRNRPPRLPRPRPRPAGQPRP,0.0891

row,Sequence,shrunken log2 fold change
1,RRIRNRPPRLPRPRPRPAGTPRP,0.0756
2,RRIRNRPPRLPRPRPRPAIDPRP,-0.0478
3,RRIRNRPPRLPRPRPRPAIEPRP,0.00973
4,RRIRNRPPRLPRPRPRPAIFPRP,-0.424
5,RRIRNRPPRLPRPRPRPAIYPRP,-0.425
6,RRIRNRPPRLPRPRPRPAKMPRP,-0.0794
7,RRIRNRPPRLPRPRPRPALHPRP,-0.296
8,RRIRNRPPRLPRPRPRPALNPRP,0.0657
9,RRIRNRPPRLPRPRPRPAMCPRP,-0.199
10,RRIRNRPPRLPRPRPRPAMLPRP,-0.145
11,RRIRNRPPRLPRPRPRPAMWPRP,-0.0838
12,RRIRNRPPRLPRPRPRPANAPRP,0.259
13,RRIRNRPPRLPRPRPRPANCPRP,-0.185
14,RRIRNRPPRLPRPRPRPANVPRP,0.0585
15,RRIRNRPPRLPRPRPRPAPNPRP,-0.0796
16,RRIRNRPPRLPRPRPRPAQAPRP,-0.0253
17,RRIRNRPPRLPRPRPRPAQIPRP,0.603
18,RRIRNRPPRLPRPRPRPARLPRP,0.184
19,RRIRNRPPRLPRPRPRPASAPRP,0.0499
20,RRIRNRPPRLPRPRPRPASSPRP,-0.317
21,RRIRNRPPRLPRPRPRPASVPRP,-0.0792
22,RRIRNRPPRLPRPRPRPATYPRP,-1.05
23,RRIRNRPPRLPRPRPRPAVLPRP,0.00424
24,RRIRNRPPRLPRPRPRPAWFPRP,0.294
25,RRIRNRPPRLPRPRPRPAWPPRP,0.408

row,Sequence,shrunken log2 fold change
1,RRIRNRPPRLPRPRPRPAYHPRP,-0.385
2,RRIRNRPPRLPRPRPRPCAGPRP,-0.123
3,RRIRNRPPRLPRPRPRPCCKPRP,-0.274
4,RRIRNRPPRLPRPRPRPCCRPRP,-0.0438
5,RRIRNRPPRLPRPRPRPCEPPRP,-0.183
6,RRIRNRPPRLPRPRPRPCHWPRP,0.065
7,RRIRNRPPRLPRPRPRPCIEPRP,-0.117
8,RRIRNRPPRLPRPRPRPCKAPRP,-0.1
9,RRIRNRPPRLPRPRPRPCKEPRP,-0.451
10,RRIRNRPPRLPRPRPRPCKPPRP,-0.0414
11,RRIRNRPPRLPRPRPRPCLFPRP,-0.608
12,RRIRNRPPRLPRPRPRPCLQPRP,-0.344
13,RRIRNRPPRLPRPRPRPCLTPRP,0.0253
14,RRIRNRPPRLPRPRPRPCLWPRP,-0.359
15,RRIRNRPPRLPRPRPRPCMAPRP,-0.346
16,RRIRNRPPRLPRPRPRPCMGPRP,-0.256
17,RRIRNRPPRLPRPRPRPCPGPRP,0.00341
18,RRIRNRPPRLPRPRPRPCPLPRP,0.011
19,RRIRNRPPRLPRPRPRPCPWPRP,-0.141
20,RRIRNRPPRLPRPRPRPCQEPRP,0.15
21,RRIRNRPPRLPRPRPRPCQKPRP,0.00489
22,RRIRNRPPRLPRPRPRPCQLPRP,-0.0247
23,RRIRNRPPRLPRPRPRPCRGPRP,-0.0345
24,RRIRNRPPRLPRPRPRPCVGPRP,-0.129
25,RRIRNRPPRLPRPRPRPCVVPRP,-0.0224
